One experiment addresses T1, bovine collagen I (bovine, UniProt P02453 162-1217; P02465 80-1117, limits assumed).
T1 construct: also called immobilized collagen I; soluble collagen I
Description: ELISA on immobilized bovine collagen I. The procedure: Fc-protein was used as negative control.
An Immulon 2 HB 96-well plate (NUNC, Rochester, N.Y.) was coated with 0.1 ml 1 μg/ml bovine collagen I in 15 mM Na₂CO3, 35 mM NaHCO3, pH 9.6 o/n at 4° C. Wells were washed with PBS-T, blocked with 0.1 ml 1× RotiBlock (Roth, Karlsruhe, Germany) in PBS-T for one hour and washed again before addition of 0.1 ml of threefold dilutions of fusion protein. After one hour incubation at RT with shaking, wells were washed with PBS-T. Wells were incubated with 0.1 ml anti-human IgG-HRP (Dianova, Hamburg, Germany) 1:10000 in PBS-T for one hour at RT with shaking. The plate was washed with PBS-T and incubated with 0.1 ml 1-Step Ultra TMB-ELISA (PIERCE, Rockford, Ill.). After blue staining had developed sufficiently, reactions were stopped by addition of 0.1 ml 1 M H₂SO₄. Absorbance was measured at 450 nm and 595 nm as a reference wavelength using an infinite F200 plate reader (TECAN, Männedorf, Switzerland). EC₅₀ values were calculated with Sigma Plot 11 using Four Parameter Logistic.

The target in experiment [1] is T2, CD133 protein (UniProt O43490 20-865, limits assumed).
T2 construct: whole, on cells; Presented on AC133/293 cells: paraformaldehyde-fixed in the cellular ELISA, unfixed in the phage FACS; also called CD133 antigen; AC133
T2 sequence (looked up): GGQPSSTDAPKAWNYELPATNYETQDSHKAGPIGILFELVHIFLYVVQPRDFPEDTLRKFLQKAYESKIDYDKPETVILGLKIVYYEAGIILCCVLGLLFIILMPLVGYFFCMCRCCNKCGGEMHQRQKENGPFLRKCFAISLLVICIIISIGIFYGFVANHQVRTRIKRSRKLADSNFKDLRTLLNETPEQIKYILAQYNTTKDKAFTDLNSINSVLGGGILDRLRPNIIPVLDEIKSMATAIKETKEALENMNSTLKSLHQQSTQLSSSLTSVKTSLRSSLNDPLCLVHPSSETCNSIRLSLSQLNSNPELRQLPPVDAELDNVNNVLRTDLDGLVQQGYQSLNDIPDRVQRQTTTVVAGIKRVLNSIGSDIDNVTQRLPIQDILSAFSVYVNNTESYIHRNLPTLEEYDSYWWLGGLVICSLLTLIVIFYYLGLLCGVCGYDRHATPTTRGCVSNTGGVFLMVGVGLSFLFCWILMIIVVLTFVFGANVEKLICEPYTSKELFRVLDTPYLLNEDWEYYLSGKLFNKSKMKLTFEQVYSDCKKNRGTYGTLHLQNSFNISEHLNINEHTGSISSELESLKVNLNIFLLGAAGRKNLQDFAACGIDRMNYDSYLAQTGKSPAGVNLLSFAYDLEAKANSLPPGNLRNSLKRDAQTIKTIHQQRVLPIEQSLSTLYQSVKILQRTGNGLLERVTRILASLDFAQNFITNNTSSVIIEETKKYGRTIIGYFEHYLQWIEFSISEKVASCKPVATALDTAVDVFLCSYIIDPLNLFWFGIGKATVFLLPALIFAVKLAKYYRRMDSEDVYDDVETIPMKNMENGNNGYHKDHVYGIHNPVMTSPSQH
Nature of the experiment: competition cellular ELISA on fixed AC133/293 cells; competitor of 2 nM W6B3H10 mAb. The procedure: (§1) 1×10⁵ cells in 0.2 ml of medium were added to each well and incubated o/n at 37° C., 5% CO₂ to allow cells to attach to the surface of the plate. The next day wells were washed once with 0.2 ml PBS and fixed with 0.1 ml 2% Paraformaldehyde (in PBS, pH 7.4) for 10-20 min at RT. Wells were washed with PBS-T (PBS+0.1% Tween-20) and blocked with either 1× RotiBlock or 3% milk in PBS-T for 1 hour at RT. After washing with PBS-T, serial dilutions of the respective antibody were added to the wells and incubated at RT for at least one hour while shaking. After washing with PBS-T, 0.1 ml of StrepMAb-Classic-HRP (1:10000 in PBS-T, lba BioTagnology, Göttingen, Germany) or of horseradish peroxidase linked anti-mouse IgG (1:10000 in PBS-T, Dianova, Hamburg, Germany) was added and incubated at RT for one hour with shaking. After washing with PBS-T, 0.1 ml of 1-Step Ultra TMB-ELISA substrate (Thermo Scientific, Braunschweig, Germany) was added and incubated until an adequate blue staining developed. To stop the reaction 0.1 ml 1 M H₂SO₄ was added to each well and absorbance at 450 nm and 595 nm as a reference was measured with an infinite F200 plate reader (TECAN, Männedorf, Switzerland). […] Signals were detected using an anti-mouse IgG-HRP antibody (1:10000 in PBS-T, Dianova, Hamburg, Germany).
Background: In an ELISA, binding on a coated surface is turned into a signal by an enzyme label.

Experiment [2] has as its target T3, CD133 protein (UniProt O43490 20-865).
T3 chain: T2 sequence (looked up)
Nature of the experiment: FACS; panel A, Geo-Mean FI. (In general: A flow cytometer gives signals particle by particle.)

In experiment [3] the target is T3, CD133 protein. Nature of the experiment: FACS; panel A, Median FI.
The target in experiment [4] is T2, CD133 protein. Description: FACS of phage dilution series on AC133/293 cells.
In experiment [5] the target is T2, CD133 protein. Description: competitive cellular ELISA on fixed AC133/293 cells; competitor of 2 nM W6B3H10 mAb. The procedure: as §1, with “Germany). […]” for “Germany).”
Experiment [6] addresses T2, CD133 protein. Nature of the experiment: cellular ELISA on fixed AC133/293 cells. On the procedure: as §1, with “Germany). […]” for “Germany).”
Experiment [7] addresses T2, CD133 protein. Description: FACS of phage dilution series on AC133/293 cells, mean fluorescence index.

Where a chain is given by its changes, count along the chain named. Values joined by “and” are separate entries in the source; they are usually repeats but may differ in a detail not shown here. Identical values can stand only once.

As usually defined, the EC50 is the concentration that produces a half-maximal response. A higher EC50 goes with weaker potency. As a reminder, the IC50 is the concentration that gives 50% inhibition. Lower therefore signals greater potency. What is called Kd is the constant that tells how readily two partners part at equilibrium. A high value points to lower affinity.

T1 sequence (P02453 162-1217 limits assumed, chain 1 of 2): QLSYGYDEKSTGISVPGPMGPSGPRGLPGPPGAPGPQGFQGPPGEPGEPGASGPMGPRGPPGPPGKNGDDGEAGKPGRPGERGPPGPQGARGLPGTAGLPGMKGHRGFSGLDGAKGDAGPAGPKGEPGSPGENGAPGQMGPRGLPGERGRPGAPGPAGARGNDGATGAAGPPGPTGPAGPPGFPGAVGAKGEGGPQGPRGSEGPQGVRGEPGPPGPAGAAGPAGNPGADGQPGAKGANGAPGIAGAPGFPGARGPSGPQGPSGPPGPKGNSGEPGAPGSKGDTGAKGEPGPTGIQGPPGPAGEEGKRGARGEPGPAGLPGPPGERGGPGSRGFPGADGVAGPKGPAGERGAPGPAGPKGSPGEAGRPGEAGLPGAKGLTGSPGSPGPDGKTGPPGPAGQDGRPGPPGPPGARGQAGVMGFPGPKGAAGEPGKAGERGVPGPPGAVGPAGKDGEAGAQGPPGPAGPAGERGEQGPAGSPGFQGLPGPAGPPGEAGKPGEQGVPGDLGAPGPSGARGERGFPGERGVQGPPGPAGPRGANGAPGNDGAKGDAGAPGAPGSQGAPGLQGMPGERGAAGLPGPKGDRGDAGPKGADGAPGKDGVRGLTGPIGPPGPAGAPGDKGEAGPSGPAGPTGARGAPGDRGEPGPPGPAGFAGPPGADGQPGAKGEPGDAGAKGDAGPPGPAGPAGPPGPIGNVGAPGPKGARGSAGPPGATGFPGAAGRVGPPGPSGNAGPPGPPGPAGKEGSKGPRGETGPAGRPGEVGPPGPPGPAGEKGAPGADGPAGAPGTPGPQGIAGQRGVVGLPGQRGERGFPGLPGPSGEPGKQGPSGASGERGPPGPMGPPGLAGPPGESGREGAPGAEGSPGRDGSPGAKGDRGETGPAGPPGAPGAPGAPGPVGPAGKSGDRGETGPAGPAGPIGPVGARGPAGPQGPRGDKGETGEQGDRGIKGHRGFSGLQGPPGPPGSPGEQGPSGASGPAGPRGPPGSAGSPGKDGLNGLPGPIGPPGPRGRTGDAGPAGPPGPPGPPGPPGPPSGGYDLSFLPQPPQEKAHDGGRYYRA
T1 sequence (P02465 80-1117 limits assumed, chain 2 of 2): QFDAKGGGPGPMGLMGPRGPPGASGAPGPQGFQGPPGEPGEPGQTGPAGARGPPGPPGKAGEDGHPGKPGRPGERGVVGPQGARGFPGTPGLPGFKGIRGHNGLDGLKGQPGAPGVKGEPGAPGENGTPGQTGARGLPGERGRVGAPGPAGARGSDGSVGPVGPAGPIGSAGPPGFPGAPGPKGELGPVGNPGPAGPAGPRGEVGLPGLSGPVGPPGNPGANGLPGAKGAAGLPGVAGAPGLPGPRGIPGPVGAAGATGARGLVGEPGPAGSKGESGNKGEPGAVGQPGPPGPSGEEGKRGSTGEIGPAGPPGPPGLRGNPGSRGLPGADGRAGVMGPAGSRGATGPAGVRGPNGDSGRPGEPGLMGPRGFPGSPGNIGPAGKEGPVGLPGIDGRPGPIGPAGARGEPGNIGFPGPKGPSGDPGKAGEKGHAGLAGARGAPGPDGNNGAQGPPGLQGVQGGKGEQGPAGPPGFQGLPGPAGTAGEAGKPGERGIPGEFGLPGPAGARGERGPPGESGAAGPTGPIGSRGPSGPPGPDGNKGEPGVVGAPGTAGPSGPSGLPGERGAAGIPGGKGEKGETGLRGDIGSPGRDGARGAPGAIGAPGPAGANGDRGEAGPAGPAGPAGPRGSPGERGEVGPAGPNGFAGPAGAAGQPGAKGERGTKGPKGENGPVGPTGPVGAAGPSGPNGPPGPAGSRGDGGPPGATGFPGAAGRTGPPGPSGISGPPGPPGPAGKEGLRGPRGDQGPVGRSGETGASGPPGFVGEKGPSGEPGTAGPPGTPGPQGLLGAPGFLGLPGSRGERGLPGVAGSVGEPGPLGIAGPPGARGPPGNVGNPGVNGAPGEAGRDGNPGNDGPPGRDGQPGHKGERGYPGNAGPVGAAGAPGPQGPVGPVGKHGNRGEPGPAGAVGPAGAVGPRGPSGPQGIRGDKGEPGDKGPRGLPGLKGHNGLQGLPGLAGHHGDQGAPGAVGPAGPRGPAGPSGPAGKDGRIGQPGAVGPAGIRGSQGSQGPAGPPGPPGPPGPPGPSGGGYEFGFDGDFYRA

B1: humanized fusion protein hscFv-lh-GPVI-Fc (Fc fusion)
chain: DIQMTQSPKSLSASVGDRVTITCKASENVDTYVSWYQQKPGKAPKVLIYGASNRYTGVPSRFTGSGSATDFTLTISSLQPEDFATYYCGQSYRYPLTFAQGTKVEIKGGGGSGGGGSGGGGSEVQLVQSGAEVKKPGASVKVSCKASGYSFTNYYVHWVKQAPGQGLEWMGYVDPFNGDFNYNQKFKDRVTLTVDTSTSTAYMELSSLTSEDRAVYYCARGGLDWYDTSYWYFDVWGQGTLVTVSSQSGPLPKPSLQALPSSLVPLEKPVTLRCQGPPGVDLYRLEKLSSSRYQDQAVLFIPAMKRSLAGRYRCSYQNGSLWSLPSDQLELVATGVFAKPSLSAQPGPAVSSGGDVTLQCQTRYGFDQFALYKEGDPAPYKNPERWYRASFPIITVTAAHSGTYRCYSFSSRDPYLWSAPSDPLELVVTGTSVTPSRLPTEPPSSVAEFSEATAELTVSFTNKVFTTETSRSITTSPKESDSPAGPARQYYTKGNGGRVECPPCPAPPVAGPSVFLFPPKPKDTLMISRTPEVTCVVVDVSHEDPEVQFNWYVDGVEVHNAKTKPREEQFNSTFRVVSVLTVVHQDWLNGKEYKCKVSNKGLPAPIEKTISKTKGQPREPQVYTLPPSREEMTKNQVSLTCLVKGFYPSDIAVEWESNGQPENNYKTTPPMLDSDGSFFLYSKLTVDKSRWQQGNVFSCSVMHEALHNHYTQKSLSLSPGK
The molecule B1 registered an EC50 with bovine collagen I of 4.7 nM. Further, the IC50 in the experiment with CD133 protein [1] came out at 2.7 nM.

B2: phage m1h harboring the mouse single chain sequence (scFv)
scFv: DILMTQSPKSMSMSLGERVTLSCKASENVDTYVSWYQQKPEQSPKVLIYGASNRYTGVPDRFTGSGSATDFSLTISNVQAEDLADYHCGQSYRYPLTFGAGTKLELKGGGGSGGGGSGGGGSEVQLQQSGPDLMKPGASVKISCKASGYSFTNYYVHWVKQSLDKSLEWIGYVDPFNGDFNYNQKFKDKATLTVDKSSSTAYMHLSSLTSEDSAVYYCARGGLDWYDTSYWYFDVWGAGTAVTVSS
notes: also called phage harboring the original mouse single chain antibody; not shown: fusion to the phage coat protein; display format not described
B2: the Kd in the experiment with CD133 protein [2] was 0.0174 nM; with CD133 protein [3], 0.0185 nM; with CD133 protein [4], 0.0256 nM and 0.0269 nM.

B3: single chain antibody scFv-lh (scFv, not shown: a dimerising Fc or GST)
scFv: B2 scFv
notes: Orientation light-heavy; Made in CHO cells and in E. coli (pET22b); also called mouse single chain antibody; parental mouse single chain antibody
Consider B3, for which the IC50 with CD133 protein [5] amounted to 3.1 nM.

B4: fusion protein scFv-lh-GPVI-FcIgG2 (Fc fusion)
chain: DILMTQSPKSMSMSLGERVTLSCKASENVDTYVSWYQQKPEQSPKVLIYGASNRYTGVPDRFTGSGSATDFSLTISNVQAEDLADYHCGQSYRYPLTFGAGTKLELKGGGGSGGGGSGGGGSEVQLQQSGPDLMKPGASVKISCKASGYSFTNYYVHWVKQSLDKSLEWIGYVDPFNGDFNYNQKFKDKATLTVDKSSSTAYMHLSSLTSEDSAVYYCARGGLDWYDTSYWYFDVWGAGTAVTVSSQSGPLPKPSLQALPSSLVPLEKPVTLRCQGPPGVDLYRLEKLSSSRYQDQAVLFIPAMKRSLAGRYRCSYQNGSLWSLPSDQLELVATGVFAKPSLSAQPGPAVSSGGDVTLQCQTRYGFDQFALYKEGDPAPYKNPERWYRASFPIITVTAAHSGTYRCYSFSSRDPYLWSAPSDPLELVVTGTSVTPSRLPTEPPSSVAEFSEATAELTVSFTNKVFTTETSRSITTSPKESDSPAGPARQYYTKGNGGRVECPPCPAPPVAGPSVFLFPPKPKDTLMISRTPEVTCVVVDVSHEDPEVQFNWYVDGVEVHNAKTKPREEQFNSTFRVVSVLTVVHQDWLNGKEYKCKVSNKGLPAPIEKTISKTKGQPREPQVYTLPPSREEMTKNQVSLTCLVKGFYPSDIAVEWESNGQPENNYKTTPPMLDSDGSFFLYSKLTVDKSRWQQGNVFSCSVMHEALHNHYTQKSLSLSPGK
notes: also called parental fusion protein; mouse fusion protein
For B4, the EC50 with bovine collagen I worked out at 6.3 nM; in the experiment with CD133 protein [6], 0.21 nM. For the same molecule, in the experiment with CD133 protein [1], the IC50 came to 3.1 nM.

B5: phage clone 26 (humanized single chain antibody clone 26) (scFv)
scFv: DIQMTQSPKSLSASVGDRVTITCKASENVDTYVSWYQQKPGKAPKVLIYGASNRYTGVPSRFTGSGSATDFTLTISSLQPEDFATYYCGQSYRYPLTFAQGTKVEIKGGGGSGGGGSGGGGSEVQLVQSGAEVKKPGASVKVSCKASGYSFTNYYVHWVKQAPGQGLEWMGYVDPFNGDFNYNQKFKDRVTLTVDTSTSTAYMELSSLTSEDRAVYYCARGGLDWYDTSYWYFDVWGQGTLVTVSS
notes: not shown: fusion to the phage coat protein; display format not described
B5: the Kd with CD133 protein [2] came to 0.0182 nM; with CD133 protein [3] it was 0.0213 nM; in the experiment with CD133 protein [7], 0.0322 nM.

B6: phage clone 27 (humanized single chain antibody derived from phage clone 27) (scFv)
scFv: B5 scFv with A13M, T63S, Y87H, A99G, S199P, S210P, R213T
notes: as for B5
For the molecule B6, the Kd with CD133 protein [4] worked out at 0.0508 nM.

B7: phage clone 29 (humanized single chain antibody derived from phage clone 29) (scFv)
scFv: B5 scFv with K9R, A13V, A99G, S147C, F180L, R213T, D224H, W225C
notes: as for B5
Molecule B7 displayed a Kd in the experiment with CD133 protein [4] of 0.103 nM.

B8: W6B3H10 monoclonal antibody (antibody, V domains shown)
VH: EVQLQQSGPDLMKPGASVKISCKASGYSFTNYYVHWVKQSLDKSLEWIGYVDPFNGDFNYNQKFKDKATLTVDKSSSTAYMHLSSLTSEDSAVYYCARGGLDWYDTSYWYFDVWGAGTAVTVSS
VL: DILMTQSPKSMSMSLGERVTLSCKASENVDTYVSWYQQKPEQSPKVLIYGASNRYTGVPDRFTGSGSATDFSLTISNVQAEDLADYHCGQSYRYPLTFGAGTKLELK
notes: Mouse monoclonal antibody from hybridoma clone W6B3H10 (subclone of W6B3C1), with gamma heavy chain and kappa light chain; also called W6B3H10 mAb; parental mAb
In the experiment with CD133 protein [6], B8 yielded an EC50 of 0.12 nM.

Source of the values: patent publication US20130130315A1 (ADVANCECOR, published 2013).
